The test addresses SARS-CoV-2 nucleocapsid protein (N protein) (SARS-CoV-2, UniProt P0DTC9 1-419).

B1: N-binding clone H2 Fab (Fab, V domains shown)
VH: EVQLVESGGGLVQPGGSLRLSCAASGFNVYSSSIHWVRQAPGKGLEWVASISSYYSYTSYADSVKGRFTISADTSKNTAYLQMNSLRAEDTAVYYCARSYNFSWSGYYGFDYWGQGTLVTVSS
VL: DIQMTQSPSSLSASVGDRVTITCRASQSVSSAVAWYQQKPGKAPKLLIYSASSLYSGVPSRFSGSRSGTDFTLTISSLQPEDFATYYCQQFIQFPITFGQGTKVEIKR
The Kd is the constant that tells how readily two partners part at equilibrium. For B1, binding was characterised by a dissociation constant (Kd) of 20 nM.

The values are drawn from patent publication US20230176057A1 (CHAN ZUCKERBERG BIOHUB, published 2023).
